For one assay, the target named is T1, CXCL10_HUMAN (human, UniProt P02778 22-98).
T1 sequence: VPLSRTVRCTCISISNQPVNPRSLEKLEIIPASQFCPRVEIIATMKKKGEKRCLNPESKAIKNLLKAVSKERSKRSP
Nature of the assay: yeast surface display FACS re-test. Further: test concentration or dose not given here.

The target in a further assay is T2, CXCL7_HUMAN (human, UniProt P02775 59-128).
T2 sequence: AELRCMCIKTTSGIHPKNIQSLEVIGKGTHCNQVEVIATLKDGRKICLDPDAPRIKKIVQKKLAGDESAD
Nature of the assay: yeast surface display FACS re-test. Further: test concentration or dose not given here.

The next assay addresses T3, mouse CXCL10 (mouse, UniProt P17515 22-98).
T3 sequence: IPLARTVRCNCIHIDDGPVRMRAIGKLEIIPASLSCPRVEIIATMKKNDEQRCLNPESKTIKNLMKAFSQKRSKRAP
Nature of the assay: cell-based or functional assay.

For the next assay, the target named is T4, mouse CXCL2 (mouse, UniProt P10889 28-100).
T4 sequence: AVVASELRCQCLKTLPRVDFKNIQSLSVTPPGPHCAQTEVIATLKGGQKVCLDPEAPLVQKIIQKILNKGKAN
Nature of the assay: cell-based or functional assay.

The target of the next assay is T5, mouse CXCL1 (mouse, UniProt P12850 25-96).
T5 sequence: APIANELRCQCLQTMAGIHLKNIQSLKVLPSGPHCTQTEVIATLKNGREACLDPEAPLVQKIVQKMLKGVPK
Nature of the assay: cell-based or functional assay.

In another assay the target is CXCL12_HUMAN (human, UniProt P48061 22-89). Nature of the assay: BLI.
CXCL12_HUMAN, sequence (P48061 22-89 limits assumed): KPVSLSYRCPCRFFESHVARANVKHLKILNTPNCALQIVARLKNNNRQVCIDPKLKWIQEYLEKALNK
The next assay addresses T6, CXCL9_HUMAN (human, UniProt Q07325 23-125).
T6 sequence: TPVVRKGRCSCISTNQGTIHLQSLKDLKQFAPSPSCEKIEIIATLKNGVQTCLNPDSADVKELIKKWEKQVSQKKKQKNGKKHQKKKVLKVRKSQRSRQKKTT
Nature of the assay: BLI. Background: BLI is a label-free optical method that tracks binding on a fibre tip over time.

A further assay concerns the target T7, CXCL14_HUMAN (human, UniProt O95715 35-111).
T7 sequence: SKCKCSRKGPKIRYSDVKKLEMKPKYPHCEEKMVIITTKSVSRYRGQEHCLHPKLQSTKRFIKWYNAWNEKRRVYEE
Nature of the assay: BLI.

The target of the next assay is T8, CXCL13_HUMAN (human, UniProt O43927 23-109).
T8 sequence: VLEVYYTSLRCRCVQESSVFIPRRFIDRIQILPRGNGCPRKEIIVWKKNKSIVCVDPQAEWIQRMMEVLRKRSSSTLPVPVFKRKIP
Nature of the assay: BLI.

Another assay concerns the target T9, CXCL8_HUMAN (human, UniProt P10145 28-99).
T9 sequence: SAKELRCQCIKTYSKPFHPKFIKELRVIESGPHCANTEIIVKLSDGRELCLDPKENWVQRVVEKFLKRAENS
Nature of the assay: BLI [Cont.].

Assay [1] has as its target T10, CCL8_HUMAN (human, UniProt P80075 24-99).
T10 sequence (looked up): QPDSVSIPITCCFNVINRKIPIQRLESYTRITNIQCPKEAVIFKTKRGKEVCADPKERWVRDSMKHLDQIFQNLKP
Nature of the assay: BLI.

Assay [2] has as its target T10, CCL8_HUMAN. Nature of the assay: cell-based or functional assay.

B1: P1142_AMBCA (other)
chain: KPQILQRTDHSTDSDWDPQMCPETCNPSKNISCSSECLCVTLGGGDETGTCFNMSGVDWLGHAQASDGHNDG
Turning to B1, the “% cells over threshold fluorescence” value in the assay with CXCL10_HUMAN turned out to be 80%; with CXCL7_HUMAN, 71%. Moreover, in the assay with mouse CXCL10, the “IC50, activated mouse T cell migration” value stood at 3.37 nM. Besides, the results for the “IC50, mouse bone marrow granulocyte cell migration” value in the assay with mouse CXCL2 and in the assay with mouse CXCL1 were 0.66 nM and 2.15 nM, respectively. In addition, the binding result in the assay with CXCL12_HUMAN, with CXCL9_HUMAN, with CXCL14_HUMAN, with CXCL13_HUMAN and with CXCL8_HUMAN was “no binding (tested: 300 nM)” throughout.

B2: P672:EVA1 (P672_RHIPU (1-44): EVA1_RHISA (29-94)) (designed binder)
chain: VCEVSEQEGVGEDNATEDEDYEDFFKPVTCYFANSTVGPLRPPNCKQDCNGTTETAPNGTRCFSIGDEGLRRMTANLPYDCPLGQCSNGDCIPKETYEVCYRRNWRDEKN
With B2, binding with CCL8_HUMAN [1] was characterised by a dissociation constant (Kd) of 223 nM. Besides, the “IC50, CCL8 induced THP-1 monocyte cell migration” value with CCL8_HUMAN [2] stood at 48 nM.

B3: Evasin-1 peptide variant K92E encoded by EZ406190.1 (other)
chain: EDDEDYGDLGGCPFLVAENKTGYPTIVACKQDCNGTTETAPNGTRCFSIGDEGLRRMTANLPYDCPLGQCSNGDCIPKETYEVCYRRNWRDEKN
notes: also called Evasin-1 (EZ406190.1)
With B3, the binding result with CCL8_HUMAN [1] was “no binding (tested: 300 nM)”.

Usually Kd stands for the equilibrium constant for the complex coming apart. A lower Kd goes with a tighter complex.

Values taken from patent publication US20240034757A1 (OXFORD UNIVERSITY INNOVATION, published 2024).
